Test [1] has as its target T1, human MCAM (melanoma cell adhesion molecule) expressed on transfected CHO cells (human, UniProt P43121 24-646).
T1 construct: also called hMCAM; CD146
T1 chain: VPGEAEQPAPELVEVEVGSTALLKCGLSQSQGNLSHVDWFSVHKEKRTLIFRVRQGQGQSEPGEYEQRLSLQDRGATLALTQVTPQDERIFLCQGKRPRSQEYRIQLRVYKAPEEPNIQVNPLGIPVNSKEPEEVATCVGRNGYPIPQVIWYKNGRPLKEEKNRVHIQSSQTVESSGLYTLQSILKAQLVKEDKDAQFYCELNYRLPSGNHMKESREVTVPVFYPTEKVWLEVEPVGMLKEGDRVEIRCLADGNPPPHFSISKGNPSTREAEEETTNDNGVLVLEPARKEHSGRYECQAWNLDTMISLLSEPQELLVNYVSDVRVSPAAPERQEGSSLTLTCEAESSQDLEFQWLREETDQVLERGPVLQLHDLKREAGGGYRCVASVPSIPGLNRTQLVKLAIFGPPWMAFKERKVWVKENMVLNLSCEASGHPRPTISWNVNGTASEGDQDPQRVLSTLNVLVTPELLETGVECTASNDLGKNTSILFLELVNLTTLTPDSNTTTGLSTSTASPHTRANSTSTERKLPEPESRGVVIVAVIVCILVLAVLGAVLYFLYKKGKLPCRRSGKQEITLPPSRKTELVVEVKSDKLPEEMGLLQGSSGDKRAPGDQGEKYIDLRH
Nature of the test: laminin/FACS on hMCAM CHO cells, competitor laminin 411; Expt#2; reference row with 1.0 is chimeric 2107. As to the method:
(§1) Following incubation for 30-45 minutes, the cells were washed and anti-laminin conjugated to AF650 (NovusBio) was added to detect the bound laminin. The cells were run on a flow cytometer to measure the laminin binding signal.

In test [2] the target is T2, recombinant hMCAM-His (human, UniProt P43121 24-559).
T2 construct: not shown: His tag
T2 chain: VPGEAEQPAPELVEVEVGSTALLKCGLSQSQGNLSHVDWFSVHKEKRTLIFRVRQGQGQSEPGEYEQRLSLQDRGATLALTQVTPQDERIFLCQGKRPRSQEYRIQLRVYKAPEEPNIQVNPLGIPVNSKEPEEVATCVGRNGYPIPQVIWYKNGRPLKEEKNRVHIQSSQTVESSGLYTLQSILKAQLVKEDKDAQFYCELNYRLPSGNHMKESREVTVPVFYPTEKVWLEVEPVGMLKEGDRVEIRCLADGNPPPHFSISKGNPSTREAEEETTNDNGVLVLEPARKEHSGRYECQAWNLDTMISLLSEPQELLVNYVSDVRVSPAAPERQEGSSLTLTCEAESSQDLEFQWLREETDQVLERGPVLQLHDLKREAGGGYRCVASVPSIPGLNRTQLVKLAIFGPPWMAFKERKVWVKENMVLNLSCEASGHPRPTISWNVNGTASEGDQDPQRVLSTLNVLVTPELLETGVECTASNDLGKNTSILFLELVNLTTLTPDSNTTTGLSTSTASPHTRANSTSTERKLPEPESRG
Kind of test: competitive ELISA on hMCAM-His, competitor biotinylated rodent or chimeric 2107; Expt. #1; vs rodent 2107. The gist of the method:
(§2)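 Plates coated with recombinant hMCAM-His and casein-blocked; biotinylated rodent or chimeric antibody at subsaturating level competed by 3× serial concentrations of unlabeled humanized, rodent or chimeric antibody. Bound biotinylated antibody detected with streptavidin-HRP/TMB at OD450; competitor IC50 fitted.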

Test [3] addresses T1, human MCAM (melanoma cell adhesion …). Kind of test: laminin/FACS on hMCAM CHO cells, competitor laminin 411; Expt#1; vs rodent 2107. The gist of the method:
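Bound laminin is quantified by flow cytometry using an AF650-conjugated anti-laminin detection antibody. Cells are washed before detection, following 30-45 minutes of incubation.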

Test [4] concerns the target T2, recombinant hMCAM-His. Kind of test: ForteBio Octet Red, hMCAM-His analyte; Expt. #2; vs rodent 2107. As to the method: (§3) The affinities were measured using the ForteBio Octet Red. Anti-human Fc sensors were used to capture the humanized antibodies, and several concentrations of hMCAMHis analyte were used to determine the affinity using a 1:1 fitting model.
For orientation: In BLI a coated tip is dipped into the sample, and binding shifts an interference pattern.

Test [5] concerns the target T2, recombinant hMCAM-His. Nature of the test: ForteBio Octet Red, hMCAM-His analyte; Forte column 2; vs rodent 2107. In a few lines: (§4)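 Capture humanized antibody on anti-human Fc biosensors, flow several hMCAMHis concentrations as analyte, then fit the binding traces to a 1:1 model to obtain affinity.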
Test [6] addresses T2, recombinant hMCAM-His. Kind of test: ForteBio Octet Red, hMCAM-His analyte; Forte column 1; vs rodent 2107. The gist of the method: as §4
Test [7] addresses T1, human MCAM (melanoma cell adhesion …). Nature of the test: summary of laminin blocking assay on hMCAM CHO cells, competitor laminin 411; vs rodent 2107. As to the method:
as §1

The target in test [8] is T2, recombinant hMCAM-His. Kind of test: competitive ELISA on hMCAM-His, competitor biotinylated rodent or chimeric 2107; vs rodent 2107. The gist of the method:
as §2
(An ELISA detects its analyte on a solid surface through an enzyme-linked reagent.)

Test [9] concerns the target T2, recombinant hMCAM-His. Nature of the test: ForteBio Octet Red, hMCAM-His analyte; Expt. #1; vs rodent 2107. The gist of the method: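 Using a 1:1 fitting model, affinities were calculated from sensorgrams of hMCAMHis analyte at several concentrations binding Fc-captured humanized antibody.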
The target of test [10] is T2, recombinant hMCAM-His. Kind of test: summary of ForteBio and competitive ELISA on hMCAM-His; vs rodent 2107. On the procedure:
(§5) ELISA plates were coated with recombinant hMCAM-His, and blocked with casein buffer to prevent non-specific binding. Biotinylated rodent or chimeric antibody was added at a subsaturating concentration, in the presence or absence of 3× increasing concentrations of unlabeled competitor (humanized antibody, rodent, or chimeric). After washing to remove unbound antibody, streptavidin HRP was added to allow detection of the biotinylated antibody. The ELISA was developed with TMB substrate and the OD450 was measured. The IC50 of the unlabeled competitor was determined using the GraphPad Prism5 software.
as §3

The target of test [11] is T2, recombinant hMCAM-His. Nature of the test: competitive ELISA on hMCAM-His, competitor biotinylated rodent or chimeric 2107; Expt. #2; vs rodent 2107. On the procedure:
as §5

Numbering of substitutions follows the chain as printed. Some results are limits rather than exact numbers.

B1: h2107_VH1 + h2107_VL2 (antibody, human IgG1, V domains shown)
VH: QVTLKESGPVLVKPTETLTLTCTVSGFSLTSNGVSWVRQPPGKALEWIAAISSGGSTYYNSAFKSRLTISRDTSKSQVVLTMTNMDPVDTATYYCARHRPFYFDYWGQGTLVTVSS
VL: DIQMTQSPSSLSASVGDRVTITCKGSQNIYKSLAWFQLKPGKVPKLLIYDANSLQTGIPSRFSGSGSGTDFTLTISSLQPEDVATYYCQQYYSGYTFGGGTKVEIK
notes: also called VH1VL2
In the case of B1, the figures for the “fold over rodent (blocking, laminin/FACS)” value in [1] and in [3] were 1.4 fold and 1.9 fold, respectively. The “fold over rodent (competitive ELISA)” value in test [2] stood at 1.29 fold; in test [8], 1.4 fold; in [11], 1.32 fold. For the same molecule, the “fold over rodent (Forte affinity)” value in test [4] came to 3.4 fold; in test [5], 2.8 fold; in test [6], 3 fold; in test [9], 2.37 fold. Besides, the “fold reduction in potency compared to the rodent” value in test [7] was less than 3 fold. Further, in test [10], the “fold reduction in affinity compared to the rodent” value was less than 3 fold.

B2: h2107_VH2 + h2107_VL2 (antibody, human IgG1, V domains shown)
VH: B1 VH with T68S
VL: B1 VL
notes: also called h2107VH2VL2; VH2VL2
For B2, the “fold over rodent (blocking, laminin/FACS)” value stood at 1.5 fold in test [1] and 1.4 fold in test [3]. Further, the results for the “fold over rodent (competitive ELISA)” value in test [2], in [8] and in [11] were 1.32 fold, 1.3 fold and 1.48 fold, respectively. The “fold over rodent (Forte affinity)” value came to 3.58 fold in test [4], 2.9 fold in test [5], 2.7 fold in [6] and 2.54 fold in test [9]. The “fold reduction in potency compared to the rodent” value in [7] is less than 3 fold. In test [10], the “fold reduction in affinity compared to the rodent” value is less than 3 fold.

The values are drawn from US20150239980A1 (NEOTOPE BOSCIENCES, published 2015).
